{"source": "patent US8598081B2", "about": "“Specific delivery of agrochemicals” (priority 2010, dated 2013)", "molecules": {"B1": {"name": "VHH 3E6: VHH binding gum arabic, potato lectin and leaf surface; SEQ ID NO:7 by order of the list (protein, listed as Lama glama)", "VHH": "QVQLQESGGGLVQPGGTLSLSCAASGFNVRWYGMGWFRQAPGKEREGVACISALQETTAYADSVKGRFTLSRDNPKNTLSLQMNNLQPEDTGVYYCATTDCDDSSRMTYTSYLGQGTQVTVSS", "modifications": "3E6"}, "B2": {"name": "Microcapsules containing uvitex OB VHH 3E6: polyurea microcapsules containing the fluorescent tracer Uvitex OB, coupled with (monovalent) VHH 3E6 (conjugate)", "VHH": "B1 VHH", "modifications": "left off: small tags and cut ends", "notes": "polyurea microcapsules containing the fluorescent tracer Uvitex OB, coupled with (monovalent) VHH 3E6"}}, "key": {"potato lectin [1]": {"molecular_target": "T1, potato lectin (Solanum tuberosum, UniProt Q9S8M0)", "T1 construct": "purchased Sigma", "T1 sequence (Q9S8M0 whole entry, looked up)": "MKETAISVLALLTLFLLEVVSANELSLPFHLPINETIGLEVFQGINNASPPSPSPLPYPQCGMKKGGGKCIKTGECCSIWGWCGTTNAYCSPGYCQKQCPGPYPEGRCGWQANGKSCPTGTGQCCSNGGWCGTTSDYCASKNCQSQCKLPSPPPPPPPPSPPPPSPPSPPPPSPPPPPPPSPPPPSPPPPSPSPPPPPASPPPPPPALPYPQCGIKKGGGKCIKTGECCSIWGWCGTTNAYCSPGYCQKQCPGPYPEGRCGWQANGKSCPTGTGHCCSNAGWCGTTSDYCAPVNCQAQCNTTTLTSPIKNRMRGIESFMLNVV", "experiment": "ELISA-like assay of VHH-coupled microcapsules, potato lectin-coated wells", "assay_type": "binding", "set-up": "Area of bound microcapsules: unit not given beside the values", "conditions": "for Area of bound microcapsules: uvitex OB microcapsules", "procedure": "Polyurea microcapsules were produced by interfacial polymerization. With the objective to generate functionalized polyurea microcapsules, VHH were coupled to microcapsules containing either the insecticide lambda cyhalothrin or the fluorescent tracer molecule Uvitex OB and a shell with incorporated lysine to surface-expose carboxylic acid residues. Lambda cyhalothrin was dissolved in benzyl benzoate in concentrations between 30% and 66% before encapsulation. Alternatively, a core of 1.5% Uvitex in benzyl benzoate was used for easy fluorescent visualization of microcapsules. Toluene diisocyanate (TDI) and polymethylenepolyphenylene isocyanate (PMPPI) were dissolved in the oil phase in different ratios and concentrations in the oil phase to produce desired shell characteristics. Stirring speed for the emulsion was varied to control droplet size and consequently microcapsule diameter. Microcapsules with approximate diameters of 5 μm, 10 μm, or 50 μm were successfully produced. Bifunctional lysine and trifunctional diethylene triamine (DETA) were used in different ratios and/or added sequentially during encapsulation to on the one hand maximize amounts of carboxylic acids on the microcapsules' surface and on the other hand obtain sufficient strength of capsule shells. Microcapsules were washed with water after production and stored as microcapsule suspensions in water. The microcapsules were washed with 100 mM MES, 500 mM NaCl, pH 6.0 immediately before coupling of VHH using a vacuum-tight filter flask and P 1.6 filter funnel (Duran). Alternatively, glass filter holders with 0.45 μm disposable membrane filters (Millipore) or 0.45 μm 96-well deep-well filtration plates (Millipore) were used. Couplings of VHH to microcapsules were performed using carbodiimide-mediated couplings using a one-step procedure, a two-step procedure without N-hydroxysuccinimide (NHS), or a two-step procedure with NHS. The major difference between one-step coupling and two-step coupling procedures is the occurrence of cross-linking of VHH in one-step coupling procedures. The protocols for the three procedures are largely similar and differ as follows. For one-step couplings VHH were added to washed microcapsules and 1-Ethyl-3-[3-dimethylaminopropyl]carbodiimide Hydrochloride (EDC) (Pierce) was added and coupling reaction was allowed for 2 hours at room temperature. For two-step couplings washed microcapsules were first activated with EDC in the presence or absence of NHS. Excess unreacted EDC (and NHS) were removed by quick sequential washes with ice-cold buffers and VHH were added and allowed to react with activated carboxylic acids on microcapsule shells. For ø 10 μm microcapsules 2-20 μg VHH were coupled per mg microcapsules. For microcapsules with other diameters amounts were scaled accordingly. After coupling of VHH the microcapsules were washed with PBS and stored in PBS. Success of coupling of VHH was investigated using a combination of analyzing coupling efficiency by SDS-PAGE and analyzing bound hexahistidine-tagged VHH by microscopy or a SP5 confocal microscope system (Leica) using anti-histidine antibodies directly conjugated with Alexa-488 fluorescent dye. […] VHH-coupled microcapsules were labeled with anti-histidine antibodies for 1 hour at room temperature. Unbound anti-histidine antibodies were removed by washing five times with PBS using 0.45 μm 96-well deep-well filtration plates (Millipore). […]"}, "potato leaf discs": {"system": "potato leaf discs", "experiment": "Leaf disc binding assay with VHH-coupled microcapsules, potato", "set-up": "species or system potato (variety Desiree)", "procedure": "A leaf disc binding assay was used to evaluate the interaction of VHH-coupled microcapsules with potato, grass and azalea leaves. ø 8 mm leaf discs were sampled from the leaves of potato pot plants (variety Desiree), from the leaves of greenhouse-grown Lollium perenne and from the leaves of azalea pot plants. Leaf discs were washed three times with PBS. Microcapsules containing lambda cyhalothrin or Uvitex were diluted to appropriate densities in 1% skimmed milk in PBS with 0.05%-TWEEN®-20. Microcapsules were added to the leaf discs and settling of microcapsules and binding of targeting agents allowed for 1 hour. Unbound microcapsules were removed by washing three to five times with PBS with 0.05%-TWEEN®-20.\nFor lambda cyhalothrin microcapsules, a residue analysis was performed to measure lambda cyhalothrin amounts on potato leaf discs. Washed leaf discs with bound microcapsules were transferred to glass vials and microcapsules were dissolved in acetone. Samples were diluted by addition of hexane containing 0.05% triphenylphosphate as internal standard. The amount of lambda cyhalothrin was determined by GC/MS-MS analysis in comparison with calibration solutions. Controls for lambda cyhalothrin microcapsules included blank microcapsules to which no VHH were coupled and microcapsules to which unrelated VHH were coupled.\nLeaf discs with Uvitex microcapsules were analyzed for bound microcapsules on a macrozoom microscope system (Nikon). Microcapsules were counted using Volocity image analysis software (Perkin Elmer). A DAPI filter was used to visualize Uvitex microcapsules. Controls for Uvitex microcapsules included blank microcapsules to which no VHH were coupled and microcapsules to which unrelated VHH were coupled."}, "potato lectin [2]": {"molecular_target": "T1, potato lectin", "experiment": "VHH binding to potato lectin in ELISA", "conditions": "Table 2; Blank (no antigen coating); VHH 3 μg/ml", "procedure": "ELISA plates (Maxisorp, Nunc) coated with 100 μl per well 100 μg/ml potato lectin (Sigma) in PBS were coated at 4° C. overnight and coating was continued at room temperature for 1 hour on the next day. Plates were washed three times with PBS/0.05%-TWEEN®-20 and blocked with 5% skimmed milk in PBS for 1 hour. VHH (3 μg/ml) were transferred to the potato lectin-coated plates and VHH antibody fragments were allowed to bind for 1 hour at room temperature. Bound VHH were detected with sequential incubations with monoclonal mouse anti-histidine antibodies (Abd Serotec) and rabbit anti-mouse IgG whole molecule antibodies conjugated with alkaline phosphatase (RaM/AP) (Sigma) in 1% MPBS/0.05%-TWEEN®-20. Unbound antibodies were removed by washing three times with PBS/0.05%-TWEEN®-20 after each antibody incubation. The plates were washed an additional two times with PBS and 100 μl pNPP disodium hexahydrate substrate (Sigma) was added to each well and the absorbance at 405 nm was measured (see Table 2)."}, "[3]": {"conditions": "potato leaf discs, Uvitex microcapsules, FIG. 4"}}}
{"molecule": "B1", "values": [{"measurement": "binding and retaining microcapsules to antigen-coated surface when VHH is coupled to a microcapsule", "setting": "potato lectin [1]; microcapsule binding assays, resists washing shear forces", "result": "capable of binding specifically to antigen-coated surfaces"}, {"measurement": "binding and retaining microcapsules to leaf surfaces", "setting": "potato leaf discs; VHH coupled to Uvitex microcapsules, leaf disc binding assay", "result": "capable of binding and retaining microcapsules specifically to leaf surfaces"}, {"measurement": "absorbance at 405 nm", "setting": "potato lectin [2]", "result": 0.067}]}
{"molecule": "B2", "values": [{"measurement": "Area of bound microcapsules", "setting": "potato lectin [1]; no coating (first series, with potato lectin rows), surface coverage 100%", "result": 86.574}, {"measurement": "Area of bound microcapsules", "setting": "potato lectin [1]; potato lectin, surface coverage 4%", "result": 144.955}, {"measurement": "Area of bound microcapsules", "setting": "potato lectin [1]; potato lectin, surface coverage 20%", "result": 510.242}, {"measurement": "Area of bound microcapsules", "setting": "potato lectin [1]; potato lectin, surface coverage 100%", "result": 504.839}, {"measurement": "more microcapsules bound to leaf surfaces compared to blank microcapsules", "setting": "potato leaf discs; [3]", "result": "nine-fold"}, {"measurement": "more microcapsules bound to leaf surfaces compared to microcapsules coupled with unrelated VHH", "setting": "potato leaf discs; [3]", "result": "six-fold"}]}
